Data taken from publication PMC9352680, “A comprehensive thermodynamic model for RNA binding by the Saccharomyces cerevisiae Pumilio protein PUF4”.

Biological target: T1, PUF4 RNA-binding domain (Saccharomyces cerevisiae, UniProt P25339 537-888)
T1 sequence: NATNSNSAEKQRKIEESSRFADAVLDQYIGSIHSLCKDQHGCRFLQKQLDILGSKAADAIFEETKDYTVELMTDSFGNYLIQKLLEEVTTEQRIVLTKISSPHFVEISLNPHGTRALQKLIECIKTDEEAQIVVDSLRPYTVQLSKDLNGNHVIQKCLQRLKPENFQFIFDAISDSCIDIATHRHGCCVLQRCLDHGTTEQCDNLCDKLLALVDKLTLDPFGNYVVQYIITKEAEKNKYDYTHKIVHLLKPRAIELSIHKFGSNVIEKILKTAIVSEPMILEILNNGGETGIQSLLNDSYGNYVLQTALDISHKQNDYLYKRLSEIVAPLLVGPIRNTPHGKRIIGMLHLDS
Experiment: Mg; RNA-MaP; 20 mM Na-HEPES pH 7.4, 30 mM KOAc, 0.75 mM MgCl2, 0.1% Tween-20, 5% glycerol, 0.1 mg/mL BSA, 2 mM DTT; 25 C; 0.0125-409.6 nM protein
Details: tags: N-His6-TEV cleaved; C-SNAP kept, Cy3B-labelled; label: tethered on chip by stalled RNA polymerase

B1: Id_ii_S3_P3E.3_K3.2_C3.2_[C-2G]_[T-1A]_H3.2_A3.1_F3.1_T3.2_[T9A] (ssRNA)
RNA: ACAAACGAUAUAUAUAAAACAAAC
- Kd: 1080 nM

B2: Id_ii_S3_P3E.3_K3.2_C3.2_[C-2G]_[T-1A]_H3.2_A3.1_F3.1_T3.2_[T9A]_[A10C] (ssRNA)
RNA: ACAAACGAUAUAUAUAACACAAAC
- Kd: 969 nM

B3: Id_ii_S3_P3E.3_K3.2_C3.2_[C-2A]_H3.2_A3.1_F3.1_T3.2 (ssRNA)
RNA: ACAAACAUUAUAUAUAUAACAAAC
- Kd: 462 nM

B4: Id_ii_S3_P3E.3_K3.2_C3.2_[C-2G]_[T-1A]_H3.2_A3.1_F3.1_T3.2_[T9C] (ssRNA)
RNA: ACAAACGAUAUAUAUACAACAAAC
- Kd: 839 nM

B5: Id_ii_S3_P3E.3_K3.2_C3.2_[C-2G]_[T-1A]_H3.2_A3.1_F3.1_T3.2_[T9G]_[A10G] (ssRNA)
RNA: ACAAACGAUAUAUAUAGGACAAAC
- Kd: 535 nM

B6: Id_ii_S3_P3E.3_K3.2_C3.2_[C-2A]_[T-1G]_H3.2_A3.1_F3.1_T3.2_[T9A]_[A10C] (ssRNA)
RNA: ACAAACAGUAUAUAUAACACAAAC
- Kd: 522 nM

B7: Id_ii_S3_P3E.3_K3.2_C3.2_[T-1C]_H3.2_A3.1_F3.1_T3.2_[A10T] (ssRNA)
RNA: ACAAACCCUAUAUAUAUUACAAAC
- Kd: 32.7 nM

B8: Id_ii_S3_P3E.3_K3.2_C3.2_[C-2A]_[T-1C]_H3.2_A3.1_F3.1_T3.2_[T9C]_[A10C] (ssRNA)
RNA: ACAAACACUAUAUAUACCACAAAC
- Kd: 816 nM

B9: Id_ii_S3_P3E.3_K3.2_C3.2_[C-2A]_[T-1C]_H3.2_A3.1_F3.1_T3.2_[T9A] (ssRNA)
RNA: ACAAACACUAUAUAUAAAACAAAC
- Kd: 1080 nM

B10: Id_ii_S3_P3E.3_K3.2_C3.2_[C-2T]_H3.2_A3.1_F3.1_T3.2_[A10T] (ssRNA)
RNA: ACAAACUUUAUAUAUAUUACAAAC
- Kd: 34.5 nM

B11: Id_ii_S3_P3E.3_K3.2_C3.2_[C-2A]_[T-1C]_H3.2_A3.1_F3.1_T3.2_[T9A]_[A10G] (ssRNA)
RNA: ACAAACACUAUAUAUAAGACAAAC
- Kd: 450 nM

B12: Id_ii_S3_P3E.3_K3.2_C3.2_[C-2A]_[T-1A]_H3.2_A3.1_F3.1_T3.2_[T9A]_[A10T] (ssRNA)
RNA: ACAAACAAUAUAUAUAAUACAAAC
- Kd: 98.1 nM

B13: Id_ii_S3_P3E.3_K3.2_C3.2_[T-1C]_H3.2_A3.1_F3.1_T3.2_[T9G]_[A10T] (ssRNA)
RNA: ACAAACCCUAUAUAUAGUACAAAC
- Kd: 392 nM

B14: Id_ii_S3_P3E.3_K3.2_C3.2_[C-2A]_[T-1G]_H3.2_A3.1_F3.1_T3.2_[T9C]_[A10C] (ssRNA)
RNA: ACAAACAGUAUAUAUACCACAAAC
- Kd: 1920 nM

B15: Id_ii_S3_P3E.3_K3.2_C3.2_[C-2A]_[T-1C]_H3.2_A3.1_F3.1_T3.2_[T9C]_[A10G] (ssRNA)
RNA: ACAAACACUAUAUAUACGACAAAC
- Kd: 1040 nM

B16: Id_ii_S3_P3E.3_K3.2_C3.2_[C-2T]_[T-1A]_H3.2_A3.1_F3.1_T3.2_[T9A]_[A10C] (ssRNA)
RNA: ACAAACUAUAUAUAUAACACAAAC
- Kd: 376 nM

B17: Id_ii_S3_P3E.3_K3.2_C3.2_[C-2T]_H3.2_A3.1_F3.1_T3.2_[T9A]_[A10T] (ssRNA)
RNA: ACAAACUUUAUAUAUAAUACAAAC
- Kd: 149 nM

B18: Id_ii_S3_P3E.3_K3.2_C3.2_[T-1G]_H3.2_A3.1_F3.1_T3.2_[T9A]_[A10G] (ssRNA)
RNA: ACAAACCGUAUAUAUAAGACAAAC
- Kd: 796 nM

B19: Id_ii_S3_P3E.3_K3.2_C3.2_[C-2A]_H3.2_A3.1_F3.1_T3.2_[T9A]_[A10T] (ssRNA)
RNA: ACAAACAUUAUAUAUAAUACAAAC
- Kd: 381 nM

B20: Id_ii_S3_P3E.3_K3.2_C3.2_[C-2T]_[T-1C]_H3.2_A3.1_F3.1_T3.2_[A10C] (ssRNA)
RNA: ACAAACUCUAUAUAUAUCACAAAC
- Kd: 493 nM

B21: Id_ii_S3_P3E.3_K3.2_C3.2_[T-1C]_H3.2_A3.1_F3.1_T3.2_[T9C]_[A10C] (ssRNA)
RNA: ACAAACCCUAUAUAUACCACAAAC
- Kd: 614 nM

B22: Id_ii_S3_P3E.3_K3.2_C3.2_[C-2G]_H3.2_A3.1_F3.1_T3.2_[T9G]_[A10T] (ssRNA)
RNA: ACAAACGUUAUAUAUAGUACAAAC
- Kd: 292 nM

B23: Ib_S1_P5E.1_K5.1_C5.1_H5.1_A5.1_[A7G]_F5.1_[T9C]_T5.1 (ssRNA)
RNA: UCUCUUUGUAUUGUCAUCUCUU
- Kd: 140 nM

B24: Id_ii_S3_P3E.3_K3.2_C3.2_[T-1G]_H3.2_A3.1_F3.1_T3.2_[T9C]_[A10C] (ssRNA)
RNA: ACAAACCGUAUAUAUACCACAAAC
- Kd: 1540 nM

B25: Id_ii_S3_P3E.3_K3.2_C3.2_[T-1A]_H3.2_A3.1_F3.1_T3.2_[T9G]_[A10C] (ssRNA)
RNA: ACAAACCAUAUAUAUAGCACAAAC
- Kd: 328 nM

B26: Id_ii_S3_P3E.3_K3.2_C3.2_[C-2T]_[T-1C]_H3.2_A3.1_F3.1_T3.2_[A10T] (ssRNA)
RNA: ACAAACUCUAUAUAUAUUACAAAC
- Kd: 39 nM

B27: Id_ii_S3_P3E.3_K3.2_C3.2_[T-1C]_H3.2_A3.1_F3.1_T3.2_[A10G] (ssRNA)
RNA: ACAAACCCUAUAUAUAUGACAAAC
- Kd: 769 nM

B28: Id_ii_S3_P3E.3_K3.2_C3.2_[C-2A]_H3.2_A3.1_F3.1_T3.2_[T9G]_[A10T] (ssRNA)
RNA: ACAAACAUUAUAUAUAGUACAAAC
- Kd: 67.5 nM

B29: Id_ii_S3_P3E.3_K3.2_C3.2_[C-2A]_[T-1C]_H3.2_A3.1_F3.1_T3.2_[A10G] (ssRNA)
RNA: ACAAACACUAUAUAUAUGACAAAC
- Kd: 572 nM

B30: Id_ii_S3_P3E.3_K3.2_C3.2_[C-2T]_[T-1A]_H3.2_A3.1_F3.1_T3.2_[T9C] (ssRNA)
RNA: ACAAACUAUAUAUAUACAACAAAC
- Kd: 205 nM

B31: Id_ii_S3_P3E.3_K3.2_C3.2_[C-2G]_H3.2_A3.1_F3.1_T3.2_[T9C]_[A10C] (ssRNA)
RNA: ACAAACGUUAUAUAUACCACAAAC
- Kd: 1700 nM
